“Also recorded” adds a separate entry of the source.

Assay [1] relates to 4T1.2 cells. Put plainly: MTT-based viability. It is filed as cell-based, mouse. To be noted: 1 to 5 μM OAC2.
The subject of assay [2] is 4T1.2 cells. Put plainly: Mouse model of a mammary tumor. To be noted: BALB/c mice, daily intraperitoneal injection of 10 mg/kg OAC2. It is filed as in vivo.
For assay [3], the system named is 4T1.2 cells. Put plainly: Western blot analysis. Type of assay: cell-based, mouse. How it is done: Western blot analysis. Cultured cells were lysed in a radio-immunoprecipitation assay (RIPA) buffer and proteins were fractionated by 10-15% SDS gels and electro-transferred to polyvinylidene difluoride (PVDF) transfer membranes (Millipore, Billerica, MA, USA). The membrane was incubated overnight with primary antibodies and then with secondary antibodies conjugated with horseradish peroxidase (Cell Signaling, Danvers, MA, USA). Antibodies against c-Myc, Oct4, Sox2, Klf4, Lrp5, Runx2, Snail, TGFβ, Eno1, Eef2, vinculin (Cell Signaling, Danvers, MA, USA), MMP9, NFATc1, cathepsin K (Santa Cruz, Dallas, TX, USA), TRAIL (Novus, Centennial, CO, USA), p53 (Invitrogen, Carlsbad, CA, USA), Hsp90ab1 (Abcam, Cambridge, UK), Kdm3a (Thermo-Fisher Scientific, Waltham, MA, USA) and β-actin as a control (Sigma, St. Louis, MO, USA) were employed. The level of proteins was determined using a SUPERSIGNAL™ west femto maximum sensitivity substrate (Thermo-Fisher Scientific, Waltham, MA, USA), and a luminescent image analyzer (LAS-3000, Fuji Film, Tokyo, Japan) was used to quantify signal intensities.
A general note: In western blotting, separated proteins are transferred to a membrane and probed.

In assay [4] the test system is EO771 mammary tumor cells. Put plainly: EdU assay. The following applies: inhibitor applied with iTS CM. Type of assay: cell-based, mouse. As to the method: (§1) EdU assays. Two thousand cells were seeded in 96-well plates on day 1, CM was added on day 2, and cellular proliferation was examined using a fluorescence-based cell proliferation kit (CLICK-IT™ EdU ALEXA FLUOR™ 488 Imaging Kit; Thermo-Fisher, Waltham, MA, USA). After fluorescent labeling, the number of fluorescently labeled cells were counted and the ratio to the total number of cells was determined.
(§2) EdU assay. Using a procedure previously reported, approximately 1,000 cells were seeded in 96-well plates on day 1. CM was added on day 2 and cellular proliferation was examined with a fluorescence-based cell proliferation kit (CLICK-IT™ EdU ALEXA FLUOR™ 488 Imaging Kit; Thermo-Fisher, Waltham, MA, USA) on day 4. After fluorescent labeling, the number of fluorescently labeled cells was counted and the ratio to the total number of cells was determined.

Assay [5] has as its system EO771 mammary tumor cells. Put plainly: TRANSWELL invasion assay. Type of assay: cell-based, mouse. The following applies: inhibitor applied with iTS CM. How it is done: (§3) Invasion assay. The invasion capacity of cancer cells was determined using a 24-well plate, TRANSWELL® chambers (Thermo Fisher Scientific, Waltham, MA, USA) with […] pore size and MATRIGEL™. Cell invasion was measured in TRANSWELL® chambers with a coating including MATRIGEL™ (100 μg/ml). The cells in 200 μL serum-free DMEM were placed on the upper chamber and 800 μL iTS CM was added in the lower chamber. After 24 h, the cells that had invaded the lower side of the membrane were stained with Crystal Violet. At least five randomly chosen images were taken under a microscope, and the average number of stained cells that represented the relative invasion was determined.

The test system of assay [6] is 4T1.2 mouse mammary tumor cells. Put plainly: Tumor selectivity from MTT-based viability (tumor vs non-tumor cells). It is filed as cell-based. The source says: (§4) Variations in tumor selectivity among the predicted tumor-suppressing proteins. Tumor-suppressing proteins may inhibit the progression of tumor cells but not inhibit the progression of non-tumor cells. Using the MTT-based viability, tumor selectivity was defined as a ratio of (reduction in MTT-based viability of tumor cells) to (reduction in MTT-based viability of non-tumor cells). The tumor selectivity may be above one to remove tumor cells and a larger value may signify a reduction in the inhibition of the growth of non-tumor cells. The tumor selectivity was determined using three tumor cells (4T1.2 mouse mammary tumor cells, EO771 mammary tumor cells, and MDA-MB-231 breast cancer cells) and three non-tumor cells (adipose cells, MLO-A5 osteocytes, and murine MSCs). […] Table 2 provides the tumor selectivity of 4T1.2 Oct4 CM, 4T1.2 c-Myc CM, and 10 tumor-suppressing protein candidates.

In assay [7] the test system is EO771 mammary tumor cells. Described as above. It is filed as cell-based, mouse. The following applies: tumor cells EO.
Source text: as §4

The test system of assay [8] is MDA-MB-231 breast cancer cells. The assay is described as above. Type of assay: cell-based, human.
Source text: as §4

Assay [9] has as its system EO771 mammary tumor cells. Briefly: Wound-healing scratch assay. Type of assay: cell-based, mouse. The following applies: EO771 cells. As to the method: Two-dimensional motility assay. A wound-healing scratch motility assay was performed to measure 2-dimensional cell motility. Cells were seeded in 12-well plates, after cell attachment, a plastic pipette tip was used to scratch a gap on the cell layer. Images of the cell-free scratch zone were obtained via an inverted microscope at 0 h, and the areas newly occupied with cells were determined 48 h after scratching. The areas were quantified with Image J (National Institutes of Health, Maryland, USA).
Scratch assay. A wound-healing scratch assay was conducted to evaluate 2-dimensional migratory behavior. Approximately 4×10^5 cells were seeded in 12-well plates. After cell attachment, a plastic pipette tip was used to scratch a gap on the cell layer. After the removal of the floating cells, CM was added. Images of the cell-free scratch zone were collected at 0 h, and the areas newly occupied with cells were determined 24-48 h after scratching. The areas were quantified with IMAGE J™ (National Institutes of Health, Bethesda, MD, USA).

A further assay concerns EO771 tumor cells. Briefly: MTT-based viability. Type of assay: cell-based, mouse.
In assay [10] the test system is TRAMP prostate tumor cells. Put plainly: EdU assay. It is filed as cell-based. The following applies: EdU-based. How it is done:
as §1

In assay [11] the test system is TRAMP prostate tumor cells. Briefly: TRANSWELL invasion assay. It is filed as cell-based. As to the method: as §3
Assay [12] has as its system PANC-1 pancreatic tumor cells. Briefly: EdU assay. Type of assay: cell-based, human. To be noted: PANC-1 cells, EdU-based. As to the method: as §1
Assay [13] deals with PANC-1 pancreatic tumor cells. Put plainly: TRANSWELL invasion assay. Type of assay: cell-based, human. The following applies: PANC-1 cells. As to the method: as §3
The next assay concerns EO771 cells. Put plainly: Western blot analysis. Type of assay: cell-based, mouse. As to the method: Western blot analysis. Cultured cells were lysed in a radio-immunoprecipitation assay buffer with protease inhibitors (Santa Cruz Biotechnology, Santa Cruz, CA, USA) and phosphatase inhibitors (Calbiochem, Billerica, MA, USA). After cell lysis, proteins were fractionated by 10-15% SDS gels and electro-transferred to polyvinylidene difluoride (“PVDF”) transfer membranes (Millipore, Billerica, MA, USA). After blocking 1 h with a blocking buffer (Bio-Rad), the membrane was incubated overnight with primary antibodies and then with secondary antibodies conjugated with horseradish peroxidase for 45 min (Cell Signaling, Danvers, MA, USA). Antibodies against β-catenin, cleaved-caspase 3, Runx2, Snail, Enolase-1 (Cell Signaling, Danvers, MA, USA), MMP9 (Santa Cruz, Dallas, TX, USA), TRAIL (Novus, Centennial, CO, USA), p53 (Invitrogen, Carlsbad, CA, USA), and β-actin as a control (Sigma, St. Louis, MO, USA), were employed. The level of proteins was determined using a SUPERSIGNAL™ west femto maximum sensitivity substrate (Thermo Scientific, Waltham, MA, USA), and a luminescent image analyzer (LAS-3000, Fuji Film, Tokyo, Japan) was used to quantify signal intensities.

Assay [14] has as its system 4T1.2 cells. Briefly: EdU assay. It is filed as cell-based, mouse. How it is done: as §2
Assay [15] relates to 4T1.2 cells. Briefly: TRANSWELL invasion assay. It is filed as cell-based, mouse. How it is done:
TRANSWELL® invasion assay. In a TRANSWELL® invasion assay, approximately 5×10^4 cells in 200 μL serum-free DMEM were placed on the upper TRANSWELL® chamber (Thermo Fisher Scientific, Waltham, MA, USA) with MATRIGEL™ (100 μg/ml), and 800 μL of CM was added in the lower chamber. After 48 h, the cells that had invaded the lower side of the membrane were stained with Crystal Violet. At least five randomly chosen images were taken, and the average number of stained cells was determined.

A further assay deals with adipose-derived MSCs. Put plainly: MTT-based viability of non-tumor cells. Type of assay: cell-based, human.
Source text: as §4

In the case of `O=C(Nc1ccc2[nH]ccc2c1)c1ccccc1` [OAC2], the “MTT-based viability / proliferation of tumor cells, direct application” value in the assay with 4T1.2 cells [1] is “did not alter; also recorded: No detectable change”. Also, in the assay on 4T1.2 cells [2], the “size of mammary tumors / progression of tumors, direct administration” value is listed as “did not alter; also recorded: No detectable change”. In addition, the Oct4 level result in the assay on 4T1.2 cells [3] (4T1.2 cells, OAC2 treatment) is reported as “Elevation”.
Turning to `Nc1cccc2c1C(=O)N(C1CCC(=O)NC1=O)C2=O` (stereo not drawn) [Pomalidomide], in assay [4], the “inhibitory effect of β-catenin-overexpressing iTS CM on proliferation” value is “interfered with the inhibitory effect”. Besides, the “inhibitory effect of β-catenin-overexpressing iTS CM on invasion” value in assay [5] was “interfered with the inhibitory effect”.

B1: enolase 1: enolase 1 recombinant protein (protein, UniProt P17182 2-434, looked up)
Alpha-enolase: SILRIHAREIFDSRGNPTVEVDLYTAKGLFRAAVPSGASTGIYEALELRDNDKTRFMGKGVSQAVEHINKTIAPALVSKKVNVVEQEKIDKLMIEMDGTENKSKFGANAILGVSLAVCKAGAVEKGVPLYRHIADLAGNPEVILPVPAFNVINGGSHAGNKLAMQEFMILPVGASSFREAMRIGAEVYHNLKNVIKEKYGKDATNVGDEGGFAPNILENKEALELLKTAIAKAGYTDQVVIGMDVAASEFYRSGKYDLDFKSPDDPSRYITPDQLADLYKSFVQNYPVVSIEDPFDQDDWGAWQKFTASAGIQVVGDDLTVTNPKRIAKAASEKSCNCLLLKVNQIGSVTESLQACKLAQSNGWGVMVSHRSGETEDTFIADLVVGLCTGQIKTGAPCRSERLAKYNQILRIEEELGSKAKFAGRSFRNPLAK
Regarding B1, the Tumor selectivity in assay [6] (non-tumor cells A5) is listed as 1.48; in [6] (non-tumor cells MSC), 3.30; in assay [7] (non-tumor cells A5) it was 3.29; in assay [7] (non-tumor cells MSC) it was 7.34; in [8] (non-tumor cells A5) it was 3.11; in assay [8] (non-tumor cells MSC), 6.94. The scratch-based migration result in assay [9] is given as “inhibited”. Also, in the assay with EO771 tumor cells, the MTT-based viability result is “significant decrease”. In addition, the proliferation entry in assay [10] and in assay [12] was “inhibited” in each case. In addition, the invasion entry in assay [11] and in [13] was “inhibited” each time. Also, the “expression of MMP9, Runx2, and Snail” value in the assay with EO771 cells is “reduced”. In addition, in the assay on EO771 cells, the “expression of p53 and TRAIL” value is reported as “elevated”. In addition, the EdU-based proliferation result in the assay on 4T1.2 cells [14] is reported as “reduced”. Further, in the assay on 4T1.2 cells [15], the TRANSWELL invasion result was “reduced”. Besides, the “level of Kdm3a” value in the assay with 4T1.2 cells [3] (4T1.2 cells) is “reduced”. For the same molecule, the “Lrp5, MMP9, Runx2, TGFβ, and Snail” value with 4T1.2 cells [3] (recombinant protein applied extracellularly to 4T1.2 cells) is on record as “downregulated”. Further, the “MTT-based viability of non-tumor cells” value in the assay on adipose-derived MSCs is “elevated”.

These data come from US20240082313A1, “PHARMACEUTICAL COMPOSITIONS AND THEIR METHODS OF USE” (The Trustees of Indiana University, priority 2021, published 2024).
